According to patent US20050026834A1:
Several values for one entry are separate records, joined by “and”; a condition that tells them apart may be missing. Equal entries are not always repeated.

Biological target: T1, rabbit GH receptor (rabbit) (UniProt P19941)
T1 sequence (looked up): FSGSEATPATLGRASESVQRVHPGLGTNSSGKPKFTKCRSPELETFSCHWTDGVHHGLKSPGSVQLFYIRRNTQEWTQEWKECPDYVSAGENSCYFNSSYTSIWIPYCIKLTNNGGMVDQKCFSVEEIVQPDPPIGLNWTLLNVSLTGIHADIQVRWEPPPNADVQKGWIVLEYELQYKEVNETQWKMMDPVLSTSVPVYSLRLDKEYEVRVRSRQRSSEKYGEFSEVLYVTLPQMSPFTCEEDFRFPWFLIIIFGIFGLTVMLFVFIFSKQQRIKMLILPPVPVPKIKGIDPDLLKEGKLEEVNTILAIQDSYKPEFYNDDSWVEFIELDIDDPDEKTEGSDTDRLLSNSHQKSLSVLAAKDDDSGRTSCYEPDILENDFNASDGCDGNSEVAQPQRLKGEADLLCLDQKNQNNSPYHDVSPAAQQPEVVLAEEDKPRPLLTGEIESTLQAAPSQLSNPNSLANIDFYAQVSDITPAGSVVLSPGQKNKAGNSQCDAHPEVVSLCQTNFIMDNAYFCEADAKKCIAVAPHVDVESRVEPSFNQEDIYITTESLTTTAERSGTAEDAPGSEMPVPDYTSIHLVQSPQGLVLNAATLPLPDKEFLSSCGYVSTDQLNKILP
Assay: cell-based or functional assay

Mean EC50 (ng/ml), proliferation of GH-R4 cells (MTS) | Substance | further results
– | PEG-S144C hGH (mono-PEGylated S144C) (from UniProt P01241 27-217) (ligand) | EC50 of single experiments, cell proliferation assay (Example 1): 40 ng/mL and 45 ng/mL
1.6 ng/mL | hGH cysteine mutein S144C (from UniProt P01241 27-217) (ligand) | –
1.4 ng/mL | hGH cysteine mutein T3C, disulfide-linked homodimer (from UniProt P01241 27-217) (ligand) | –
– | hGH cysteine mutein T148C (from UniProt P01241 27-217) (ligand) | Mean EC50 (ng/ml), proliferation of GH-R4 cells (MTS); T148C-lotA: 0.5 ng/mL; Mean EC50 (ng/ml), proliferation of GH-R4 cells (MTS); T148C-lotB: 2.5 ng/mL
0.8 ng/mL | wild-type rhGH (secreted from E. coli with the stII signal sequence) (from UniProt P01241 27-217) (ligand) | –
